Results reported in patent US20250163127A1.

Experiments:
CD28 (human) [1] = biological target: CD28 (human) (UniProt P10747); assay: flow cytometry, transfected cells
PD-L1 (human) = assay: flow cytometry, CHO cells stably expressing PD-L1
CD28 (human) [2] = biological target: CD28 (human) (UniProt P10747); assay: flow cytometry, Jurkat cells (CD28)
CTLA4 (human) = assay: flow cytometry, CHO cells stably expressing CTLA4
Chain of CTLA4 (human) (chain, as listed by the source): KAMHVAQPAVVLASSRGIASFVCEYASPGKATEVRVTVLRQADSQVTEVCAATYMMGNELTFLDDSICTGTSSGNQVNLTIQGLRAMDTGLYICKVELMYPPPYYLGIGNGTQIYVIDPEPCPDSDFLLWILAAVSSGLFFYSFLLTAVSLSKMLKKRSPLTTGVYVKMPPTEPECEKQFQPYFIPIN

Chain of PD-L1 (human) (chain, as listed by the source): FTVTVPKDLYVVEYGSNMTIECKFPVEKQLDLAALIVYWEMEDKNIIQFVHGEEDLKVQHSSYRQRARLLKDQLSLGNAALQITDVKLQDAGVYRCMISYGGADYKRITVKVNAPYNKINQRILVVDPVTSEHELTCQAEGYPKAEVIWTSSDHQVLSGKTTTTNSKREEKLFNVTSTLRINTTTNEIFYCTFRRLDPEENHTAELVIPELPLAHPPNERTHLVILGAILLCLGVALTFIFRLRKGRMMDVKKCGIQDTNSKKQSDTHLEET

| Binder | MFI (CD28 (human) [1]) | Fold change to WT (PD-L1 (human)) | MFI at 33.3 nM (PD-L1 (human)) | Fold change to WT (CD28 (human) [2]) | MFI at 33.3 nM (CD28 (human) [2]) | Fold change to WT CD80 (CTLA4 (human)) | MFI at 33.3 nM (CTLA4 (human)) |
| --- | --- | --- | --- | --- | --- | --- | --- |
| ICOSL ECD-Fc N52Q/N119Q/N155Q (Fc fusion) DTQEKEVRAMVGSDVELSCACPEGSRFDLNDVYVYWQTSESKTVVTYHIPQQSSLENVDSRYRNRALMSPAGMLRGDFSLRLFNVTPQDEQKFHCLVLSQSLGFQEVLSVEVTLHVAAQFSVPVVSAPHSPSQDELTFTCTSINGYPRPNVYWIQKTDNSLLDQALQNDTVFLNMRGLYDVVSVLRIARTPSVNIGCCIENVLLQQNLTVGSQTGNDIGERDKITENPVSTGEKNAAT | 552 MFI | – | – | – | – | – | – |
| ICOSL ECD-Fc N119Q/N207Q (Fc fusion) DTQEKEVRAMVGSDVELSCACPEGSRFDLNDVYVYWQTSESKTVVTYHIPQNSSLENVDSRYRNRALMSPAGMLRGDFSLRLFNVTPQDEQKFHCLVLSQSLGFQEVLSVEVTLHVAAQFSVPVVSAPHSPSQDELTFTCTSINGYPRPNVYWINKTDNSLLDQALQNDTVFLNMRGLYDVVSVLRIARTPSVNIGCCIENVLLQQQLTVGSQTGNDIGERDKITENPVSTGEKNAAT | 1860 MFI | – | – | – | – | – | – |
| ICOSL ECD-Fc N84Q/N119Q (Fc fusion) DTQEKEVRAMVGSDVELSCACPEGSRFDLNDVYVYWQTSESKTVVTYHIPQNSSLENVDSRYRNRALMSPAGMLRGDFSLRLFQVTPQDEQKFHCLVLSQSLGFQEVLSVEVTLHVAAQFSVPVVSAPHSPSQDELTFTCTSINGYPRPNVYWINKTDNSLLDQALQNDTVFLNMRGLYDVVSVLRIARTPSVNIGCCIENVLLQQNLTVGSQTGNDIGERDKITENPVSTGEKNAAT | 1490 MFI | – | – | – | – | – | – |
| ICOSL ECD-Fc N155Q/N207Q (Fc fusion) DTQEKEVRAMVGSDVELSCACPEGSRFDLNDVYVYWQTSESKTVVTYHIPQNSSLENVDSRYRNRALMSPAGMLRGDFSLRLFNVTPQDEQKFHCLVLSQSLGFQEVLSVEVTLHVAANFSVPVVSAPHSPSQDELTFTCTSINGYPRPNVYWIQKTDNSLLDQALQNDTVFLNMRGLYDVVSVLRIARTPSVNIGCCIENVLLQQQLTVGSQTGNDIGERDKITENPVSTGEKNAAT | 1490 MFI | – | – | – | – | – | – |
| ICOSL ECD-Fc N52Q/N84Q (Fc fusion) DTQEKEVRAMVGSDVELSCACPEGSRFDLNDVYVYWQTSESKTVVTYHIPQQSSLENVDSRYRNRALMSPAGMLRGDFSLRLFQVTPQDEQKFHCLVLSQSLGFQEVLSVEVTLHVAANFSVPVVSAPHSPSQDELTFTCTSINGYPRPNVYWINKTDNSLLDQALQNDTVFLNMRGLYDVVSVLRIARTPSVNIGCCIENVLLQQNLTVGSQTGNDIGERDKITENPVSTGEKNAAT | 1680 MFI | – | – | – | – | – | – |
| ICOSL ECD-Fc N168Q (Fc fusion) DTQEKEVRAMVGSDVELSCACPEGSRFDLNDVYVYWQTSESKTVVTYHIPQNSSLENVDSRYRNRALMSPAGMLRGDFSLRLFNVTPQDEQKFHCLVLSQSLGFQEVLSVEVTLHVAANFSVPVVSAPHSPSQDELTFTCTSINGYPRPNVYWINKTDNSLLDQALQQDTVFLNMRGLYDVVSVLRIARTPSVNIGCCIENVLLQQNLTVGSQTGNDIGERDKITENPVSTGEKNAAT | 1410 MFI | – | – | – | – | – | – |
| ICOSL ECD-Fc N84Q/N168Q/N207Q (Fc fusion) DTQEKEVRAMVGSDVELSCACPEGSRFDLNDVYVYWQTSESKTVVTYHIPQNSSLENVDSRYRNRALMSPAGMLRGDFSLRLFQVTPQDEQKFHCLVLSQSLGFQEVLSVEVTLHVAANFSVPVVSAPHSPSQDELTFTCTSINGYPRPNVYWINKTDNSLLDQALQQDTVFLNMRGLYDVVSVLRIARTPSVNIGCCIENVLLQQQLTVGSQTGNDIGERDKITENPVSTGEKNAAT | 737 MFI | – | – | – | – | – | – |
| CD80 variant A26E/Q33R/E35D/M47L/L85Q/K86E IgV-Fc (Fc fusion) VIHVTKEVKEVATLSCGHNVSVEELEQTRIYWRKDKKMVLTMMSGDLNIWPEYKNRTIFDITNNLSIVILALRPSDEGTYECVVQEYEKDAFKREHLAEVT | – | 9.56 fold | 76000 MFI | 0.04 fold | 275 MFI | 0.01 fold | 1280 MFI |
| CD80 variant H18Y/Q33L/E35D/M47I IgV-Fc (Fc fusion) VIHVTKEVKEVATLSCGYNVSVEELAQTRIYWLKDKKMVLTMMSGDINIWPEYKNRTIFDITNNLSIVILALRPSDEGTYECVVLKYEKDAFKREHLAEVT | – | 6.02 fold | 47800 MFI | 0.04 fold | 295 MFI | 0.03 fold | 5540 MFI |
| CD80 variant H18Y/E35D/M47L IgV-Fc (Fc fusion) VIHVTKEVKEVATLSCGYNVSVEELAQTRIYWQKDKKMVLTMMSGDLNIWPEYKNRTIFDITNNLSIVILALRPSDEGTYECVVLKYEKDAFKREHLAEVT | – | 5.56 fold | 44200 MFI | 0.66 fold | 5070 MFI | 1.59 fold | 284000 MFI |
| CD80 variant E35D/M47L/L85Q IgV-Fc (Fc fusion) VIHVTKEVKEVATLSCGHNVSVEELAQTRIYWQKDKKMVLTMMSGDLNIWPEYKNRTIFDITNNLSIVILALRPSDEGTYECVVQKYEKDAFKREHLAEVT | – | 4.18 fold | 33200 MFI | 0.08 fold | 646 MFI | 1.88 fold | 336000 MFI |
| CD80 variant Q33K/E35D/M47V/K89E/K93R IgV-Fc (Fc fusion) VIHVTKEVKEVATLSCGHNVSVEELAQTRIYWKKDKKMVLTMMSGDVNIWPEYKNRTIFDITNNLSIVILALRPSDEGTYECVVLKYEEDAFRREHLAEVT | – | – | 39100 MFI | – | 276 MFI | – | – |
| CD80 variant Q33L/E35D/T41S/M47V IgV-Fc (Fc fusion) VIHVTKEVKEVATLSCGHNVSVEELAQTRIYWLKDKKMVLSMMSGDVNIWPEYKNRTIFDITNNLSIVILALRPSDEGTYECVVLKYEKDAFKREHLAEVT | – | 5.52 fold | 43800 MFI | 0.04 fold | 287 MFI | 0.08 fold | 14500 MFI |

Next, values leading:

| MFI (CD28 (human) [1]) | Fold change to WT (PD-L1 (human)) | MFI at 33.3 nM (PD-L1 (human)) | Fold change to WT (CD28 (human) [2]) | MFI at 33.3 nM (CD28 (human) [2]) | Fold change to WT CD80 (CTLA4 (human)) | MFI at 33.3 nM (CTLA4 (human)) | Binder |
| --- | --- | --- | --- | --- | --- | --- | --- |
| 1760 MFI | – | – | – | – | – | – | ICOSL ECD-Fc N84Q (Fc fusion) DTQEKEVRAMVGSDVELSCACPEGSRFDLNDVYVYWQTSESKTVVTYHIPQNSSLENVDSRYRNRALMSPAGMLRGDFSLRLFQVTPQDEQKFHCLVLSQSLGFQEVLSVEVTLHVAANFSVPVVSAPHSPSQDELTFTCTSINGYPRPNVYWINKTDNSLLDQALQNDTVFLNMRGLYDVVSVLRIARTPSVNIGCCIENVLLQQNLTVGSQTGNDIGERDKITENPVSTGEKNAAT |
| 2530 MFI | – | – | – | – | – | – | ICOSL ECD-Fc N119Q/N168Q (Fc fusion) DTQEKEVRAMVGSDVELSCACPEGSRFDLNDVYVYWQTSESKTVVTYHIPQNSSLENVDSRYRNRALMSPAGMLRGDFSLRLFNVTPQDEQKFHCLVLSQSLGFQEVLSVEVTLHVAAQFSVPVVSAPHSPSQDELTFTCTSINGYPRPNVYWINKTDNSLLDQALQQDTVFLNMRGLYDVVSVLRIARTPSVNIGCCIENVLLQQNLTVGSQTGNDIGERDKITENPVSTGEKNAAT |
| 921 MFI | – | – | – | – | – | – | ICOSL ECD-Fc N119Q/N168Q/N207Q (Fc fusion) DTQEKEVRAMVGSDVELSCACPEGSRFDLNDVYVYWQTSESKTVVTYHIPQNSSLENVDSRYRNRALMSPAGMLRGDFSLRLFNVTPQDEQKFHCLVLSQSLGFQEVLSVEVTLHVAAQFSVPVVSAPHSPSQDELTFTCTSINGYPRPNVYWINKTDNSLLDQALQQDTVFLNMRGLYDVVSVLRIARTPSVNIGCCIENVLLQQQLTVGSQTGNDIGERDKITENPVSTGEKNAAT |
| 602 MFI | – | – | – | – | – | – | ICOSL ECD-Fc N52Q/N84Q/N119Q/N207Q (Fc fusion) DTQEKEVRAMVGSDVELSCACPEGSRFDLNDVYVYWQTSESKTVVTYHIPQQSSLENVDSRYRNRALMSPAGMLRGDFSLRLFQVTPQDEQKFHCLVLSQSLGFQEVLSVEVTLHVAAQFSVPVVSAPHSPSQDELTFTCTSINGYPRPNVYWINKTDNSLLDQALQNDTVFLNMRGLYDVVSVLRIARTPSVNIGCCIENVLLQQQLTVGSQTGNDIGERDKITENPVSTGEKNAAT |
| – | 7.89 fold | 62700 MFI | 0.04 fold | 274 MFI | 0.01 fold | 1170 MFI | CD80 variant A26E/Q33L/E35D/M47L/L85Q IgV-Fc (Fc fusion) VIHVTKEVKEVATLSCGHNVSVEELEQTRIYWLKDKKMVLTMMSGDLNIWPEYKNRTIFDITNNLSIVILALRPSDEGTYECVVQKYEKDAFKREHLAEVT |
| – | 9.64 fold | 76600 MFI | 0.04 fold | 272 MFI | 0.01 fold | 2090 MFI | CD80 variant H18Y/A26E/Q33L/E35D/M47L/L85Q IgV-Fc (Fc fusion) VIHVTKEVKEVATLSCGYNVSVEELEQTRIYWLKDKKMVLTMMSGDLNIWPEYKNRTIFDITNNLSIVILALRPSDEGTYECVVQKYEKDAFKREHLAEVT |
| – | 10.3 fold | 81500 MFI | 0.03 fold | 264 MFI | 0.01 fold | 1280 MFI | CD80 variant A26E/Q33R/E35D/M47L/L85Q IgV-Fc (Fc fusion) VIHVTKEVKEVATLSCGHNVSVEELEQTRIYWRKDKKMVLTMMSGDLNIWPEYKNRTIFDITNNLSIVILALRPSDEGTYECVVQKYEKDAFKREHLAEVT |
| – | 4.7 fold | 37400 MFI | 0.04 fold | 282 MFI | 0.09 fold | 15900 MFI | CD80 variant Q33L/E35D/M47I IgV-Fc (Fc fusion) VIHVTKEVKEVATLSCGHNVSVEELAQTRIYWLKDKKMVLTMMSGDINIWPEYKNRTIFDITNNLSIVILALRPSDEGTYECVVLKYEKDAFKREHLAEVT |
| – | 7.67 fold | 60900 MFI | 0.04 fold | 271 MFI | 0.01 fold | 1320 MFI | CD80 variant A26E/Q33L/E35D/M47L IgV-Fc (Fc fusion) VIHVTKEVKEVATLSCGHNVSVEELEQTRIYWLKDKKMVLTMMSGDLNIWPEYKNRTIFDITNNLSIVILALRPSDEGTYECVVLKYEKDAFKREHLAEVT |
| – | 8.05 fold | 63900 MFI | 0.04 fold | 287 MFI | 0.11 fold | 20500 MFI | CD80 variant Q33L/E35D/M47I/L85Q IgV-Fc (Fc fusion) VIHVTKEVKEVATLSCGHNVSVEELAQTRIYWLKDKKMVLTMMSGDINIWPEYKNRTIFDITNNLSIVILALRPSDEGTYECVVQKYEKDAFKREHLAEVT |
